Biological target: wild-type full-length recombinant human prion protein (human) (UniProt P04156)
Test: AFM height measurement with a calibration curve of marker proteins

## wild-type full-length recombinant human prion protein (from UniProt P04156 23-231) (natural protein)
  stoichiometry N: 11 to 22 monomers

Reference: paper PMC4505822
